Data reported in patent publication US20200181597A1, “Composition and Application of Arginine-depleting Agents for Cancer, Obesity, Metabolic Disorders, and Related Complications and Comorbidities” (THE HONG KONG POLYTECHNIC UNIVERSITY, priority 2018, published 2020).

Legend:
[1] = test system: mouse 3T3-L1 preadipocytes; test: 3T3-L1 preadipocyte differentiation (oil red O, qRT-PCR); assay type: cell-based
Protocol: FIG. 23 illustrates that arginine depletion by adding N-ABD094-rhArg (SEQ ID NO: 50) (rhArg), bovine arginase or native arginine deiminase (ADI) to the culture medium, or using arginine-free medium inhibited the differentiation of mouse 3T3-L1 preadipocytes into adipocytes. […] (*The culture medium contains 0.4 mM L-arginine and can be converted into 0.4 mM L-ornithine and 0.4 mM urea by arginase, or 0.4 mM L-citrulline by ADI.). Cells grown in culture medium without addition of arginine depleting agents or metabolic products of arginase/ADI served as the control. Lipids in cells were stained with oil red O at 6 days after exposure to specific differentiation-inducing factors added to the medium.
FIG. 24 illustrates that N-ABD094-rhArg (SEQ ID NO: 50) could suppress adipogenic and lipogenic genes in 3T3-L1 preadipocytes. Mouse 3T3-L1 preadipocytes were cultured for 6 days in medium supplemented with specific factors to induce differentiation into adipocytes (differentiated). Cells grown in medium without these factors remained undifferentiated. The medium was added with 2U/mL N-ABD094-rhArg (SEQ ID NO: 50) (rhArg). Cells grown in medium without the addition of N-ABD094-rhArg served as the control. The mRNA expression levels of several crucial (A) transcriptional regulators of adipogenesis, and (B) enzymes in lipogenic pathways were determined by real-time qRT-PCR, and expressed relative to the undifferentiated (control) group, which is set as 1. *P<0.05, one-way ANOVA followed by Fisher's LSD. Data are expressed as mean±SEM, n=3 for each group.
FIG. 25 illustrates the response of 3T3-L1 preadipocytes to various concentrations of arginine Mouse 3T3-L1 preadipocytes were cultured in arginine-free medium with or without addition of varying concentrations of L-arginine for 6 days. Cells cultured in normal arginine-containing medium supplemented with differentiation inducing factors served as the positive (+ve) control of differentiation, while cells cultured in normal arginine-containing medium without supplementation of differentiation inducing factors served as the negative (−Ve) control of differentiation. One group of cells was cultured in normal arginine-containing medium supplemented with differentiation inducing factors and treated with 5U/mL N-ABD094-rhArg (SEQ ID NO: 50) (rhArg) to inhibit differentiation. (A) Cells were stained for lipids with oil red O, and staining intensity was quantified by measuring optical density, which is expressed as the percentage against the +ve control group. (B) The mRNA levels of several crucial lipogenesis related genes are expressed relative to cells cultured in arginine-free medium, which is set as 1. Data are expressed as mean±SEM, n=3 for each group.
To test the effect of N-ABD094-rhArg (SEQ ID NO: 50) on fat cells, mouse 3T3-L1 preadipocytes were used, which are commonly employed as cell-based model for studying adipogenesis [Green and Meuth, 1974, Cell 3:127-133].

[2] = Enzyme kinetics after metal ion substitution; assay type: biochemical
Protocol: Wild type arginase typically includes a Mn^2+ metal ion (D′Antonio & Christianson, 2011, Biochemistry, 50:8018-27). […] Purified N-ABD094-rhArg (SEQ ID NO: 50) in 20 mM Tris-HCl buffer (pH 7.4) was mixed with 20 mM of different divalent metal ions (Mn^2+, Ni^2+ or Co^2+), and was incubated at 52-55° C. for 15-60 min and then buffer exchanged with PBS buffer (pH 7.4).
Samples were subjected to enzyme activity and enzyme kinetic studies to determine the specific activity and catalytic efficiency (kcat/Km). Samples were applied to inductively coupled plasma atomic emission spectroscopy (ICP-OES, Agilent 700 Series ICP optical emission spectrometer) for quantitative analysis of metal content.

[3] = LFD-fed mice treated for 8 months: anti-drug antibody and safety; assay type: in vivo, C57BL/6J male mice
Protocol: FIG. 56 illustrates that C57BL/6J male mice fed a LFD and received an intraperitoneal injection of 500U N-ABD094-rhArg (SEQ ID NO: 50) [LFD(rhArg) group] once a week for 8 months starting from 5 week old had developed non-neutralizing anti-drug antibody. (A) Using an ELISA assay, anti-rhArg antibodies, with an average antibody titer of 10^8, could be detected in the plasma of LFD-fed mice treated with N-ABD094-rhArg. (B) The plasma was incubated with 1,000U/mL N-ABD094-rhArg (rhArg*) for 1 hr followed by measurement of arginase activity. There was no reduction in arginase activity, showing that the antibodies generated in the animal against the drug were not neutralizing antibodies. Data are expressed as mean±SEM, n=3 for each group.
Generation of neutralizing antibodies may affect the pharmacodynamics, pharmacokinetic, stability and efficacy of a drug. To determine the immunogenic response, 8 week old C57BL/6J male mice fed a LFD received i.p. injection of 500U of N-ABD094-rhArg (SEQ ID NO: 50), or saline as vehicle control, at 7-day intervals for 8 months.
To assess the safety of long-term use, serum and urine samples from LFD-fed mice treated with N-ABD094-rhArg (SEQ ID NO: 50) for 8 months were collected for analysis of ALT and AST, which are commonly used biomarkers of liver damage, and serum creatinine and urine albumin/creatinine ratio for assessing kidney functions.

B1: N-ABD094-rhArg: albumin binding domain ABD094 fused N-terminally to recombinant human arginase I, SEQ ID NO: 50 (protein)
chain: MHHHHHHDEAVDANSLAEAKEAANAELDSYGVSDFYKRLIDKAKTVEGVEALKDAILAALPSGSNNNNNNGSGGMSAKSRTIGIIGAPFSKGQPRGGVEEGPTVLRKAGLLEKLKEQECDVKDYGDLPFADIPNDSPFQIVKNPRSVGKASEQLAGKVAEVKKNGRISLVLGGDHSLAIGSISGHARVHPDLGVIWVDAHTDINTPLTTTSGNLHGQPVSFLLKELKGKIPDVPGFSWVTPCISAKDIVYIGLRDVDPGEHYILKTLGIKYFSMTEVDRLGIGKVMEETLSYLLGRKKRPIHLSFDVDGLDPSFTPATGTPVVGGLTYREGLYITEEIYKTGLLSGLDIMEVNPSLGKTPEEVTRTVNTAVAITLACFGLAREGNHKPIDYLNPPK
modifications: Mn2+; N-ABD094-rhArg, Synthesized in the Lab
- mRNA levels of adipogenic transcription factors and lipogenic enzymes ([1]; 2U/mL, 6 days): significantly suppressed
- adipogenesis and lipogenesis in 3T3-L1 cells (oil red O) ([1]; added to culture medium, 6 days of differentiation): effectively inhibit
- Km [2]: 1370 to 1890 µM
- kcat [2]: 82 to 98 s⁻¹
- average anti-rhArg antibody titer in plasma (ELISA) ([3]; 500U i.p. weekly for 8 months): 10^8
- serum ALT, AST, creatinine and urine albumin/creatinine ratio vs vehicle ([3]; 500U weekly for 8 months): did not show any significant differences
- plasma arginine concentrations throughout the study period ([3]; 500U weekly for 8 months, Biochrom 30 detection limit): < 3 µM
- vascular reactivity of isolated arteries (phenylephrine, acetylcholine, sodium nitroprusside) vs vehicle ([3]; 500U weekly for 8 months, wire myography): no significant differences
- effect of anti-drug antibodies on arginase activity ([3]; plasma incubated with 1,000U/mL drug for 1 hr): did not have neutralizing effects
